Measurements taken from US20200040085A1 (Chugai, published 2020).

B1: DQN0139 (antibody, human IgG1, kappa, V domains shown)
VH: QSLEESGGRLVTPGTALTLTCTVSGFSLSSYAMGWVRQAPGKGLEYIGWTSPGDSAYYASWTKGRFTISRTSTTVELKITSPTTEDTATYFCARDAAYIGHWAFNLWGPGTLVTVSS
VL: DVVMTQTPASVSAPVGGTVTINCQASESIYSNLAWYQQKPGQPPKLLIYGASTLESGVPSRVKGSGYGTQFTLTISDLECADAATYYCQQYYGSSSTAFTFGGGTKVEIKR
notes: also called DQN0139bb
B2: DQN0089 (antibody, human IgG1, kappa, V domains shown)
VH: QEQVVEYGGDLVQPEGSLTLTCKASGLDFSSTYYMCWVRQAPGKGLEWIGCIYGGSSDSTYYASWAKGRFTISKTSPTTVTLQMTSLTAADTATHFCATYDYGAVGYDLWGPGTLVTVSS
VL: EVVVTQTPASVEVAVGGTVTIKCQASQNISPYLSWYQQKPGQPPKLLIYKASTLASGVSSRFKGSGSGTQFTLTISDLECADAATYYCQNNYGVSINYGHTFGGGTKVEIKR
B3: DQN0177 (antibody, human IgG1, kappa, V domains shown)
VH: QSVEESGGRLVTPGTPLTLTCTVSGFSLSSYAMSWVRQAPGKGLEWIGVISYSGRTYDASWAKGRFTISKTSTTVDLKITSPTTEDTATYFCARVGDSYGYAYATVIFTYHFNLWGPGTLVTVSS
VL: DPVLTQTPSSASEPVGGTVTIKCQASESISSSLAWYQQKPGQRPKLLIYDASKLASGVPSRFKGSGSGTEFTLTISGVQCDDAATYYCQHGLSSGSTNRCAFGGGTKVEIKR
notes: also called DQN0177aa
B4: DQN0016 (antibody, human IgG1, kappa, V domains shown)
VH: QSLEESGGDLVKPGASLTLTCTASGFSFSSRYWMCWVRQAPGKGLEWIACIDAGSSGITYYASWANGRFTISKTSSTTVTLQMTSLTAADTATYFCARDAWSTTDGWNTFNLWGPGTLVTVSS
VL: DVVMTQTPASVSAAVGGTVTIKCQASQSIGSNLNWYQQKPGQSPKLLIYSASTLASGVPSRFKGSGSGTEYTLTISNLECADAATYYCQSYYYTGSSAVNNFGGGTKVEIKR
notes: Rabbit B-cell derived variable regions recombined with F1332m heavy and hkOMC light constant regions; expressed in FreeStyle 293-F cells; also called DQN0016cc
B5: DQN0092 (antibody, human IgG1, kappa, V domains shown)
VH: QSVEESGGRLVTPGTPLTLTCTVSGFSLSSYYISWVRQAPGKGLEWIGIIYTDGVTDYPNWAKGRFTISKTSTTVDLKITSPTTEDTATYFCARDAASVYGCGYFDLWGPGTLVTVSS
VL: TFKLTQTPASVEAAVGGTVTIKCQASESNGNALAWYQQKPGQPPKLLIYRAFTLASGVPSRLKGSGSGTQFALTISDLECADAATYYCQTYYGSNTDFNAFGGGTKVEIKR
notes: Rabbit variable regions with F1332m and hkOMC constant regions; also called DQN0092hh
B6: DQN0157 (antibody, human IgG1, kappa, V domains shown)
VH: QSLEESGGDLVKPGASLTLTCTASGFSFSSSYYMCWVRQAPGKGLEWIACIYTGSSGSTYYPSWAKGRFTISKTSSTTVTLQMTSLTAADTATYFCARVRAGSGYYYFNLWGPGTLVTVSS
VL: DIVMTQTPSSVSAAVGGTVTIKCQASQTIYSGLAWYQQKPGQPPKLLIYDASDLASGVPSRFSGSGSGTEFTLAISGVQCDDAATYYCHGDYYGGSGTFFWTFGGGTKVEIKR
notes: Rabbit variable regions with F1332m and hkOMC constant regions; also called DQN0157cc
B7: DQN0100 (antibody, human IgG1, kappa, V domains shown)
VH: QQQLEESGGGLVKPGASLTLTCKGSGFSFTSGYWICWVRQAPGKGLEWIGCIYTGSSGSTYYASWAKGRFTISRSSTTVTLQMTSLTVADTATYFCAGDPSGASSGWDNLWGPGTLVTVSS
VL: AFELTQTPSSVEAAVGGTVTIKCQASQTIVSWLAWYQQKPGQRPKLLILYASNLASGVSSRFRGSGSGTDYTLTISDLECDDAATYYCQSYYFSTSSPDMYAFGGGTKVEIKR
notes: Rabbit variable regions with F1332m and hkOMC constant regions; also called DQN0100aa

Legend:
[1] = target: T1, recombinant HLA-DQ8/gliadin peptide (human); experiment: SPR Biacore T200, 37 C, pH 7.4; antibody captured by anti-human Fc, pMHC injected; 1:1 model
T1 chain 1: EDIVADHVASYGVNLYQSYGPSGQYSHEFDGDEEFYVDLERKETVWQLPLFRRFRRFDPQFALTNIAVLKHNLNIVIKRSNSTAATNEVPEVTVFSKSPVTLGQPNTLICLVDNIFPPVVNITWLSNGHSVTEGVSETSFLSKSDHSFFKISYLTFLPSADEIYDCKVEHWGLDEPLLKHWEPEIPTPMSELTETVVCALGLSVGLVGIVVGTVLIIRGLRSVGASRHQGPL
T1 chain 2: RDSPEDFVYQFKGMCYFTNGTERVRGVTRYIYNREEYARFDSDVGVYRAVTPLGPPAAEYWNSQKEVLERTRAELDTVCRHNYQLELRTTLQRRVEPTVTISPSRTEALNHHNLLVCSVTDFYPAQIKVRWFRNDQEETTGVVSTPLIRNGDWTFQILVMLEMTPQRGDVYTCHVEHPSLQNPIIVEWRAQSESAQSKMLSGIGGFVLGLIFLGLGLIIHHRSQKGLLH
Description: The affinity of the anti-HLA-DQ2.5/8 antibodies for binding to human HLA-DQ2.5/gliadin peptide and HLA-DQ8/gliadin peptide at pH 7.4 was determined at 37 degrees C. using the Biacore T200 instrument (GE Healthcare). Anti-human Fc (GE Healthcare) was immobilized onto all flow cells of a CM4 sensor chip using an amine coupling kit (GE Healthcare). All antibodies and analytes were prepared in ACES, pH 7.4 containing 20 mM ACES, 150 mM NaCl, 0.05% Tween 20, 0.005% NaN₃. Each antibody was captured onto the sensor surface by anti-human Fc. Antibody capture levels were aimed at 200 resonance units (RUs). A recombinant human HLA-DQ2.5/gliadin peptide was injected at […] prepared by four-fold serial dilution, followed by dissociation, whereas a recombinant human HLA-DQ8/gliadin peptide was injected at 50 to 200 nM prepared by four-fold serial dilution, followed by dissociation. The sensor surface was regenerated each cycle with 3M MgCl₂. Binding affinity was determined by processing and fitting the data to a 1:1 binding model using the Biacore T200 Evaluation software, version 2.0 (GE Healthcare). A commercially available antibody (SPV-L3) was tested as comparison.

[2] = target: T1, recombinant HLA-DQ8/gliadin peptide; experiment: bead-based flow cytometry: HLA-DQ8/gliadin peptide on beads, antibody titrated, blocking of SP3.4 TCR-PE binding [panel DQ8/SP3.4 TCR neutralization]
Description: Streptavidin-coated yellow particles (Spherotech, SVFB-2552-6K) were incubated in blocking buffer (2% BSA in PBS) for 30 minutes with shaking at room temperature. After centrifugation and aspiration of the supernatant, 0.167 micro g/mL of soluble […] was then added as 1.2E+4 beads/micro L solution and immobilized for 60 minutes with shaking at room temperature in 96 well plates (Sigma Aldrich, Cat No. M2686). […] The final concentration of HLA-DQ8/gliadin peptide was 0.075 micro g/mL. The plates were washed with blocking buffer, and serially diluted anti-HLA-DQ2.5/8 antibodies were added and incubated for 60 minutes with shaking at room temperature. […] Data acquisition was performed on LSR Fortessa (Becton Dickinson), followed by analysis using the FlowJo software (Tree Star) and the GraphPad Prism software (GraphPad).

[3] = target: complex of the invariant chain and HLA-DQ on Raji cells (UniProt P04233 1-296); experiment: cell-based or functional assay
complex of the invariant chain and HLA-DQ on Raji cells, sequence (P04233 whole entry, change not shown, one chain of several): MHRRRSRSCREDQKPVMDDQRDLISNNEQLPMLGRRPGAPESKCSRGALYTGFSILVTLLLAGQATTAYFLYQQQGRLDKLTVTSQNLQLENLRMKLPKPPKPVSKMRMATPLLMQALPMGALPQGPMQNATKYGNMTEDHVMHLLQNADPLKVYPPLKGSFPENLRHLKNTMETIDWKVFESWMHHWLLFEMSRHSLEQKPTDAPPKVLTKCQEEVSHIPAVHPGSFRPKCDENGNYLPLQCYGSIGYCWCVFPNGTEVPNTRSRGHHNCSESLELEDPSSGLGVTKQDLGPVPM

[4] = target: T2, HLA-DQ8 (HLA-DQA1*0301, HLA-DQB1*0302) on Ba/F3 cells (human, UniProt P01909 24-216; P01920 33-230, limits assumed); experiment: FACS on Ba/F3-HLA-DQ8 cells
T2 construct: whole, on cells; Expressed from cDNA in mouse Ba/F3 cells; also called Ba/F3-HLA-DQ8
T2 MHC II alpha: not shown
T2 MHC II beta: not shown
Description: (§1) Binding of antiHLA-DQ2.5/8 antibodies to HLA-DQ2.5-expressing Ba/F3 cells (Ba/F3-HLA-DQ2.5), Ba/F3-HLA-DQ8, Ba/F3-HLA-DR, Ba/F3-HLA-DP, Ba/F3-cynoDQ C1, Ba/F3-cynoDQ C2, and Ba/F3-cynoDQ C3 was tested.
(§2) Anti-HLA-DQ2.5/8 antibodies were incubated with each cell line for 30 minutes at room temperature and washed with FACS buffer (2% FBS, 2 mM EDTA in PBS). Goat F(ab′)2 anti-Human IgG, Mouse ads-PE (Southern Biotech, Cat. 2043-09) was then added and incubated for 20 minutes at 4 degrees C. and washed with FACS buffer. Data acquisition was performed on an FACS Verse (Becton Dickinson), followed by analysis using the FlowJo software (Tree Star) and the GraphPad Prism software (GraphPad).

[5] = target: T3, cynomolgus monkey MHC-DQ allele #1 (MHC DQA1*M2-1, MHC DQB1*M2-1) on Ba/F3 cells (cynomolgus monkey); experiment: FACS on Ba/F3-cynoDQ C1 cells, PE-labelled anti-human IgG secondary [panel Ba/F3-cynoDQ C1]
T3 construct: also called Ba/F3-cynoDQ C1; cynoDQ C1
T3 MHC II alpha: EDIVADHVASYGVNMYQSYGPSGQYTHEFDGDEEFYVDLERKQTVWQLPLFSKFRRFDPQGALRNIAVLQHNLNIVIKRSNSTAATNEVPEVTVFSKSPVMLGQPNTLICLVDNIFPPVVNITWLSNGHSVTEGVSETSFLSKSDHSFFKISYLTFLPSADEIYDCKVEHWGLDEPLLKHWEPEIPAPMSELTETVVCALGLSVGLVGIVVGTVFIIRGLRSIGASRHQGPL
T3 MHC II beta: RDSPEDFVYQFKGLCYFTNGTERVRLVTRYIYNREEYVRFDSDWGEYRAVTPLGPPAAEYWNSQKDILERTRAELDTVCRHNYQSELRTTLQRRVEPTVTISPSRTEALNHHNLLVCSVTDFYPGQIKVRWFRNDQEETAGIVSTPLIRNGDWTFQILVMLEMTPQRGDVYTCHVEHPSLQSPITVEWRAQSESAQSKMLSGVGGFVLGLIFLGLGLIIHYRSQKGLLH
Description: as §1, §2

[6] = target: T4, HLA-DQ2.5 (HLA-DQA1*0501, HLA-DQB1*0201) on Ba/F3 cells (human, UniProt P01909 24-216, limits assumed); experiment: FACS on Ba/F3-HLA-DQ2.5 cells
T4 construct: whole, on cells; Expressed from cDNA in mouse Ba/F3 cells; also called Ba/F3-HLA-DQ2.5
Description: as §1, §2

Binder	Kd [1]	IC50 (read off the curve) [2]	ratio [MFI (PE/FITC) without Cytochalasin D, Dynasore]/[MFI (PE/FITC) with Cytochalasin D, Dynasore] on Raji cells (invariant chain-mediated internalization) [3]	koff [1]	kon [1]	binding result [4]	binding result [5]	binding result [6]
B1	11.3 nM	~0.3 µg/mL	–	–	–	–	–	–
B2	–	–	~3	–	–	–	–	–
B3	3.67 nM	–	–	0.00137 s⁻¹	374000 M⁻¹ s⁻¹	–	–	–
B4	151 nM	~0.2 µg/mL	–	–	–	–	–	–
B5	7.28 nM	–	–	0.00122 s⁻¹	168000 M⁻¹ s⁻¹	binds	no binding	binds
B6	22.6 nM	~0.1 µg/mL	–	0.0033 s⁻¹	146000 M⁻¹ s⁻¹	–	no binding	–
B7	1.94 nM	~0.1 µg/mL	–	0.000458 s⁻¹	236000 M⁻¹ s⁻¹	–	–	–
